Experimental findings from patent publication EP4803541A1 (Changchun Genescience Pharmaceutical Co., Ltd., dated 2026) are described below.

Assay [1] addresses GH (GH stock solution) (UniProt P01241). Put plainly: affinity chromatography, VHH-conjugated medium loaded with GH stock solution; medium in 0.1M NaOH 0h.
Assay [2] shares this target. In words: affinity chromatography, VHH-conjugated medium loaded with GH stock solution; medium in 0.1M NaOH 24h.
For assay [3] the target is unchanged. In words: loss of dynamic binding capacity of the conjugated medium for GH after 0.1M NaOH 32h.
Assay [4] has the same target. In words: affinity chromatography, VHH-conjugated medium loaded with GH stock solution; medium in 0.5M NaOH 0h.
Assay [5] deals with rhGH protein (UniProt: P01241) (human) (UniProt P01241). Put plainly: ELISA on coated rhGH, anti-6*His HRP; sample after 0.5M NaOH 24h, against WT. More on the design: unit not given beside the values. A general note: In an ELISA, binding on a coated surface is turned into a signal by an enzyme label.
The target in assay [6] is GH (GH stock solution) (UniProt P01241). In words: affinity chromatography, VHH-conjugated medium loaded with GH stock solution; medium in 0.5M NaOH 6h.
The target is the same in assay [7]. In words: affinity chromatography, VHH-conjugated medium loaded with GH stock solution; medium in 0.5M NaOH 24h.
Assay [8] has the same target. Put plainly: affinity chromatography, VHH-conjugated medium loaded with GH stock solution; medium in 0.1M NaOH 32h.
For assay [9] the target is unchanged. Put plainly: loss of dynamic binding capacity of the conjugated medium for GH after 0.5M NaOH 24h.
Assay [10] addresses T1, rhGH protein (UniProt: P01241) (human, UniProt P01241 27-217).
T1 construct: Coated at 5 ug/ml in the ELISA; also called human growth hormone
In words: ELISA on coated rhGH; sample after 0.5M NaOH 24h.

For assay [11], the target named is T1, rhGH protein (UniProt: P01241). In words: ELISA on coated rhGH, anti-6*His HRP; sample after 0.3 M NaOH 24h.

Chain of GH (GH stock solution) (P01241 27-217 limits assumed): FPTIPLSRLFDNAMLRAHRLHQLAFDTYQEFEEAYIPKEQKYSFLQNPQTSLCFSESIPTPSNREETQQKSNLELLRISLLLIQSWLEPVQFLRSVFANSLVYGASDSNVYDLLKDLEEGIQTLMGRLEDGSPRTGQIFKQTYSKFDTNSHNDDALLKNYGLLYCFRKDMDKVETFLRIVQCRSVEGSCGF
T1 sequence (P01241 27-217 limits assumed, one chain of several): as the sequence (P01241 27-217 limits assumed) above
Chain of rhGH protein (UniProt: P01241) (human) (UniProt P01241) (P01241 27-217 limits assumed, one chain of several): as the sequence (P01241 27-217 limits assumed) above

B1: M20 (First round) (VHH)
VHH: QVQLVESGGGLAQAGGSLRLSCAVSGMPEFARAMGWFRQAPGKERELVAAIEGIGATTYYADSVKGRFTISRDDAANTVLLQMNSLKPDDTAVYYCAAAFSVTIPTRARHWVDWGPGTLVTVSS
Regarding B1, the dynamic binding capacity at 10% breakthrough in [1] is 19.6; in assay [2], 18; in assay [4] it was 19.6; in [6], 14.3; in [7], 10.2; in [8], 16.9. Besides, the DBC decay rate in [3] is less than 6%. The EC50 against that of the WT after 0.5M alkali (% higher than WT) in assay [5] came to 50. In addition, the residual DBC (a decrease of DBC) in assay [9] was less than 49%.

B2: M45 (First round) (VHH)
VHH: QVQLVESGGGLAQAGGSLRLSCAVSGMPEFARAMGWFRQAPGKERELLAAIEGIGATTYYADSVKGRFTISRDDAANTVLLQMNSLKPDDTAVYYCAAAFSVTIPTRARHWVDWGPGTLVTVSS
Take B2: the dynamic binding capacity at 10% breakthrough is 18.2 in assay [1]; 17.4 in assay [2]; 18.2 in assay [4]; 7.6 in assay [6]; 4.29 in assay [7]; 16.2 in [8]. In assay [5], the EC50 against that of the WT after 0.5M alkali (% higher than WT) amounted to 50.

B3: WT (with tag), unmodified GH single-domain antibody molecule (VHH)
VHH: QVQLVESGGGLAQAGGSLRLSCAVSGMPEFARAMGWFRQAPGKERELLAAIEGIGATTYYADSVKGRFTISRDDAANTVLLQMNSLKPDDTAVYYCAAAFSVTIPTRARHWVDWGPGTLVTVSS
Turning to B3, the dynamic binding capacity at 10% breakthrough in [1] is 22.3; in assay [2], 16.2; in assay [4] it was 22.3; in assay [6], 5.78; in [7], 3.39; in assay [8], 14.7. Besides, the DBC decay rate in assay [3] is 35%. This molecule displayed a residual DBC (a decrease of DBC) in assay [9] of 85%.

B4: M78 (Second round) (VHH)
VHH: QVQLVESGGGLAQAGGSLRLSCAVSGMPEFARAMGWFRQAPGKERELLAAIEGIGDTTYYADSVKGRFTISRDDAANTVLLQMNSLKPDDTAVYYCAAAFSVTIPTRARHWVYWGPGTLVTVSS
notes: Entry already carries A57D; G134R; D102Y); tail DDDDK-SGGRGS-HHHHHH
Regarding B4, the dynamic binding capacity at 10% breakthrough in assay [1] worked out at 16.3; in [2] it was 16.3; in assay [4], 16.3; in assay [6], 13.5; in [7] it was 9.06; in assay [8], 15.4. Moreover, the DBC decay rate in [3] is less than 6%. For the same molecule, the binding result in assay [10] is listed as “binds”. In addition, the residual DBC (a decrease of DBC) in [9] was less than 49%.

B5: M74 (Second round) (VHH)
VHH: QVQLVESGGGLAQAGGSLRLSCAVSGMPEFARAMGWFRQAPGKERELLAAIEGIGDTTYYADSVKGRFTISRDDAANTVLLQMNSLKPDDTAVYYCAAAFSVTIPTRAEHWVDWGPGTLVTVSS
notes: Entry already carries A57D; G134R; R100eE); tail DDDDK-SGGRGS-HHHHHH
B5: the dynamic binding capacity at 10% breakthrough was found to be 15 in [1]; 15.8 in assay [2]; 14.7 in assay [4]; 13.2 in assay [6]; 8.24 in [7]; 15.4 in [8]. In [3], this molecule displayed a DBC decay rate of less than 6%. Besides, in assay [10], the binding result was “binds”. Moreover, in [9], the residual DBC (a decrease of DBC) is less than 49%.

B6: M29 (First round) (VHH)
VHH: QVQLVESGGGLAQAGGSLRLSCAVSGMPEFARAMGWFRQAPGKERELLAAIEGIGAKTYYADSVKGRFTISRDDAANTVLLQMNSLKPDDTAVYYCAAAFSVTIPTRARHWVDWGPGTLVTVSS
notes: tail DDDDK-SGGGGS-HHHHHH
For the molecule B6, in assay [11], the binding result is “binds”.

B7: M8 (First round) (VHH)
VHH: QVQLVESGGGLAQAGGSLRLSCAVSGMPEFARAMGWFRQAPGKERELLAAIEGIGATTYYADSVKGRFTISRDDAANTVLLQMNSLKPDDTAVYYCAAAFSVTIPTRARHWVYWGPGTLVTVSS
notes: tail DDDDK-SGGGGS-HHHHHH
As to B7, the binding result in assay [11] is listed as “binds”.

B8: M31 (First round) (VHH)
VHH: QVQLVESGGGLAQAGGSLRLSCAVSGMPEFARAMGWFRQAPGKERELLAAIEGIGATTYYADSVKGRFTISRDDAANTVLLQMNSLKPDDTAVYYCAAAFSVTIPTRAEHWVDWGPGTLVTVSS
notes: tail DDDDK-SGGGGS-HHHHHH
Regarding B8, the binding result in assay [11] is “binds”.

B9: M25 (First round) (VHH)
VHH: QVQLVESGGGLAQAGGSLRLSCAVSGMPEFARAMGWFRQAPGKERELLAAIEGIGATTYYADSVKGRFTISRDDAANTVLLQMNSLKPDDTAVYYCAAAFSVTIPTRARHWDDWGPGTLVTVSS
notes: tail DDDDK-SGGGGS-HHHHHH
Regarding B9, the binding result in assay [11] is given as “binds”.
